These results are taken from patent US20260274955A1 (JANUX THERAPEUTICS, published 2026).

No end group written: not given here.

The target of experiment [1] is T1, anti-CD28 scFv (SEQ ID NO: 35).
T1 construct: also called anti-CD28 scFv wt Vh-linker-Vl; human anti-CD28 scFv
Put plainly: BLI (Octet).
Method: Association and dissociation signals were recorded in real time and analyzed using a 1:1 binding model within the instrument software. Analysis using a 1:1 binding model enabled the calculation of the on and off rate constants as well as affinity, KD.

Experiment [2] addresses T2, anti-CD28 scFv (SEQ ID NO: 35).
T2 construct: also called anti-CD28 scFv wt Vh-linker-Vl
Put plainly: phage binding ELISA, scFv on plate, CD28 as competitor.
T2 sequence (scFv, as listed by the source): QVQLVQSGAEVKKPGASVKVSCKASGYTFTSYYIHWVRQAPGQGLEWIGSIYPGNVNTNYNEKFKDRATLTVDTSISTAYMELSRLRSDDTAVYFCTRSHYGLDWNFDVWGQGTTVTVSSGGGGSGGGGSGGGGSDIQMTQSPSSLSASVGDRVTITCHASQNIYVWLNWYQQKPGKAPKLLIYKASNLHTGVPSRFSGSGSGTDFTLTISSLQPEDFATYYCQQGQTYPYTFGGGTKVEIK
Method: Clonal phage were harvested as crude supernatants and screened via standard enzyme linked immunosorbent assays (ELISAs). […] Prior to the addition of clonal phage, wells were incubated with blocking buffer and CD28 soluble protein or blocking buffer alone. Without washing or aspirating, clonal phage supernatants were then added to the wells and incubated for a short time. Wells were then washed followed by detection of bound phage using a horse radish peroxidase conjugated anti-M13 antibody.

Experiment [3] has as its target T3, anti-CD28 scFv wt Vh-linker-Vl (biotinylated (site not stated)).
T3 construct: captured on neutravidin plates
The experiment is described as follows: phage ELISA on captured scFv, CD28 as competitor.

T3 sequence (scFv, as listed by the source): as above

With GYCHYWGDMVMWCG (cysteine pairing not given here; also: biotinylated, site not given here, biotinylated for capture in BLI) [Peptide-118], the binding result in experiment [1] was “binds”.

In the case of IHLCHWVPWIKCSH [Phage-1664], in experiment [2], the “CD28 scFv signal in presence of CD28” value turned out to be 2.51.

As to IDWCPTAGWTYCWF [Phage-1513], the “CD28 scFv signal in presence of CD28” value in experiment [3] came out at 0.075.
